{
  "source": "patent US20230257436A1",
  "about": "(published 2023)",
  "key": {"[1]": {"target": "T1, human prosaposin (PSAP) secreted from ARPE-19 cells stably transfected with human PSAP cDNA (human) (UniProt P07602)", "T1 sequence": "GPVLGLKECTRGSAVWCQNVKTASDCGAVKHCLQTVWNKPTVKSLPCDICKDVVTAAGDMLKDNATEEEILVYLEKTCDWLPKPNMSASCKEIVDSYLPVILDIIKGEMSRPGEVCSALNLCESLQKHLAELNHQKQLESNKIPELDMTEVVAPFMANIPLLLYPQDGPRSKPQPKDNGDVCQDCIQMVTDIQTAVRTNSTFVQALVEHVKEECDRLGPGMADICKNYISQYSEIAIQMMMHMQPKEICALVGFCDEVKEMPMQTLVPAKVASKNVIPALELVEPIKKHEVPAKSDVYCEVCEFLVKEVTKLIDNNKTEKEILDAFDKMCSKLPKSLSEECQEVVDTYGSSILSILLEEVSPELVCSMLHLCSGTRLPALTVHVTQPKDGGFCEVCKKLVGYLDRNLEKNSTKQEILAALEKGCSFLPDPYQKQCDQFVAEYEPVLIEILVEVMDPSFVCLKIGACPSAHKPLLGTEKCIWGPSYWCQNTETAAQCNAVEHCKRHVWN", "experiment": "western blot of purified PGRN/PSAP complexes"}, "[2]": {"target": "T2, endogenous human progranulin (PGRN) in human plasma and CSF (human, UniProt P28799 18-593)", "T2 sequence (looked up)": "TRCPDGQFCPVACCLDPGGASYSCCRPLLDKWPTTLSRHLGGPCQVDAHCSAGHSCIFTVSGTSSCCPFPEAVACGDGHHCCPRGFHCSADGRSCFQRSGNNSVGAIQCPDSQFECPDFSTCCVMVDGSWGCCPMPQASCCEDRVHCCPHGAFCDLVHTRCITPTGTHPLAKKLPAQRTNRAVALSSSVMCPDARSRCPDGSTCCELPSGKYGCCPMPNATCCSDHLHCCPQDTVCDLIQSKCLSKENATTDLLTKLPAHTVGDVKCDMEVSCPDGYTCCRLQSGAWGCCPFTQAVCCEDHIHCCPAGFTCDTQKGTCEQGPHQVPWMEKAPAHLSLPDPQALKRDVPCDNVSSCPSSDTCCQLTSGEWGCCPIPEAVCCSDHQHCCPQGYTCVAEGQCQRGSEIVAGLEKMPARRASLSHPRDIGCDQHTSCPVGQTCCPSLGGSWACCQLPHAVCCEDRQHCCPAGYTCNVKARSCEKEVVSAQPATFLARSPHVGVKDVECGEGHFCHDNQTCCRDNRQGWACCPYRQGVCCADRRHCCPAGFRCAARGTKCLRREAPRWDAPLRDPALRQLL", "experiment": "sandwich ELISA on human plasma and CSF"}, "[3]": {"target": "T3, commercially available recombinant PGRN (R&D Systems; PGRN-His, cat no. 2420-PG) (UniProt P28799 18-593, limits assumed)", "T3 construct": "The assay is titled 'Human PGRN/PSAP Complex Assay'; not shown: His tag", "T3 sequence (looked up)": "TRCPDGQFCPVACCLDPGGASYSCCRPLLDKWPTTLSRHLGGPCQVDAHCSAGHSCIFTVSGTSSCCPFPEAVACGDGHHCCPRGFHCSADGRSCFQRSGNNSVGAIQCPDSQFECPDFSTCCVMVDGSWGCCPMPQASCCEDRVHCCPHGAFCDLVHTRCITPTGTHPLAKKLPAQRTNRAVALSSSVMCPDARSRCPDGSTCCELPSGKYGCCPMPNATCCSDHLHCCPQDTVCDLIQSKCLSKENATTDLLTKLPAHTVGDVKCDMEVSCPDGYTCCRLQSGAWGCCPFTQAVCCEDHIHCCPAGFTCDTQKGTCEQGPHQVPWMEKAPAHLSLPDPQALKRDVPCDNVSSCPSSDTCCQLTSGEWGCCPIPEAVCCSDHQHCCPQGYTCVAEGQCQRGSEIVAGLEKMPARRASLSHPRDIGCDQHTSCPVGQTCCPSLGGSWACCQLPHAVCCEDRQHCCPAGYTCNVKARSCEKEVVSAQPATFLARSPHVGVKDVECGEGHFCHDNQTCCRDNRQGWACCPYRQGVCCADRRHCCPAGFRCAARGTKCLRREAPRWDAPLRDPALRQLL", "experiment": "mixing in vitro, western blot"}},
  "data": [
    {"molecule": "human progranulin (PGRN) secreted from ARPE-19 cells stably transfected with the human progranulin gene (pT2.CAn.PGRN plasmid) (from UniProt P28799 18-593) (ligand)", "values": [
      {"measurement": "stoichiometry of PGRN and PSAP in the complex (PGRN:PSAP ratio)", "setting": "[1]", "result": 1}
    ]},
    {"molecule": "endogenous human prosaposin (PSAP), as expressed by non-PSAP-transfected ARPE-19 derived cells and as present in human plasma and CSF (ligand, UniProt P07602 17-524, looked up) GPVLGLKECTRGSAVWCQNVKTASDCGAVKHCLQTVWNKPTVKSLPCDICKDVVTAAGDMLKDNATEEEILVYLEKTCDWLPKPNMSASCKEIVDSYLPVILDIIKGEMSRPGEVCSALNLCESLQKHLAELNHQKQLESNKIPELDMTEVVAPFMANIPLLLYPQDGPRSKPQPKDNGDVCQDCIQMVTDIQTAVRTNSTFVQALVEHVKEECDRLGPGMADICKNYISQYSEIAIQMMMHMQPKEICALVGFCDEVKEMPMQTLVPAKVASKNVIPALELVEPIKKHEVPAKSDVYCEVCEFLVKEVTKLIDNNKTEKEILDAFDKMCSKLPKSLSEECQEVVDTYGSSILSILLEEVSPELVCSMLHLCSGTRLPALTVHVTQPKDGGFCEVCKKLVGYLDRNLEKNSTKQEILAALEKGCSFLPDPYQKQCDQFVAEYEPVLIEILVEVMDPSFVCLKIGACPSAHKPLLGTEKCIWGPSYWCQNTETAAQCNAVEHCKRHVWN", "values": [
      {"measurement": "binding result", "setting": "[2]", "result": "binds"}
    ]},
    {"molecule": "human prosaposin (PSAP) secreted from ARPE-19 cells stably transfected with human PSAP cDNA (ligand, The protein was secreted into conditioned medium; no signal peptide limits are stated; also called ARPE-PSAP; PSAP (#7)) GPVLGLKECTRGSAVWCQNVKTASDCGAVKHCLQTVWNKPTVKSLPCDICKDVVTAAGDMLKDNATEEEILVYLEKTCDWLPKPNMSASCKEIVDSYLPVILDIIKGEMSRPGEVCSALNLCESLQKHLAELNHQKQLESNKIPELDMTEVVAPFMANIPLLLYPQDGPRSKPQPKDNGDVCQDCIQMVTDIQTAVRTNSTFVQALVEHVKEECDRLGPGMADICKNYISQYSEIAIQMMMHMQPKEICALVGFCDEVKEMPMQTLVPAKVASKNVIPALELVEPIKKHEVPAKSDVYCEVCEFLVKEVTKLIDNNKTEKEILDAFDKMCSKLPKSLSEECQEVVDTYGSSILSILLEEVSPELVCSMLHLCSGTRLPALTVHVTQPKDGGFCEVCKKLVGYLDRNLEKNSTKQEILAALEKGCSFLPDPYQKQCDQFVAEYEPVLIEILVEVMDPSFVCLKIGACPSAHKPLLGTEKCIWGPSYWCQNTETAAQCNAVEHCKRHVWN", "values": [
      {"measurement": "binding result", "setting": "[3]", "result": "binds"}
    ]}
  ]
}
